The target in assay [1] is PTH1R-R485X (human PTH1R with an HA tag, C-terminal tail truncated at R485) (human) (UniProt Q03431).
The target in assay [2] is human PTH1R-WT with an HA tag (parathyroid hormone receptor type 1) (human) (UniProt Q03431).
Assay [3] addresses PTH1R-E35K (human PTH1R with an HA tag) (human) (UniProt Q03431). Briefly: radioligand binding; total binding of ^125I-PTHrP(1-36) (20,000-30,000 cpm/well) to confluent monolayers of intact, transiently transfected Gs22a cells in 96-well plates; HB (Hanks balanced salt solution, 10 mM HEPES pH 7.4, 0.1% BSA); one hour at room temperature.
Assay [4] has as its target PTH1R-Y134S (human PTH1R with an HA tag) (human) (UniProt Q03431). Described as above.

Sequence of β-arrestin2-renilla luciferase (rLucII) (P32121 whole entry): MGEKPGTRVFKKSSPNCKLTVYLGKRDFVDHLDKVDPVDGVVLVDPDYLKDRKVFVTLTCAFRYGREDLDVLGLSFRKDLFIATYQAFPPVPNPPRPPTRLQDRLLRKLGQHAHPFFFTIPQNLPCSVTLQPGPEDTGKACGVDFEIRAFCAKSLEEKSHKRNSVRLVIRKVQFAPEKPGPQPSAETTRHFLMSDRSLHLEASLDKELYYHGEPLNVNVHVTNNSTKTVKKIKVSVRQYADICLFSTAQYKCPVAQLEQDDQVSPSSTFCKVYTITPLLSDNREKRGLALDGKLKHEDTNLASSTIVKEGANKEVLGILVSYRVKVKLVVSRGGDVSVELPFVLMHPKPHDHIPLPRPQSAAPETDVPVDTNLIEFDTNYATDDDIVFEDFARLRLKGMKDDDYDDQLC
Sequence of ^125I-PTHrP(1-36) (peptide) (P12272 37-72): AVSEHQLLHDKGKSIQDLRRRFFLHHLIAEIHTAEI

As for “β-arrestin2-renilla luciferase (rLucII) (from UniProt P32121 1-409) (natural protein)”, the PTH(1-34)-induced recruitment of β-arrestin2^rLucII to endosomes (BRET with rGFP-FYVE), fold-BRET increase from baseline in assay [1] amounted to 1.33 fold; in assay [2] it was 6.08 fold. In addition, the PTH(1-34)-induced recruitment of β-arrestin2^rLucII to the plasma membrane (BRET with rGFP-CAAX), fold-BRET increase from baseline in assay [1] was determined as 2.69 fold; in assay [2] it was 4.79 fold.

For the substance ^125I-PTHrP(1-36) (peptide), the reduction of total binding relative to PTH1R-WT in assay [3] and in assay [4] was 50% throughout.

For the origin of these results see paper PMC10238420, “Altered Signaling and Desensitization Responses in PTH1R Mutants Associated with Eiken Syndrome” (Communications Biology, 2023).
